This assay in a line: Detection of GFAT activity of the proteins (HPLC detection of PITC-bound glucosamine-6-phosphate). The following applies: 1 μl recombinant protein in 100 μl reaction mixture; 6 mM glutamine, 10 mM fructose-6-phosphate; pH 7.5; room temperature, 5 hours. Format: biochemical. The procedure: GFAT activity of the proteins: TGC028-3 and TGC028-4 was measured in the following manner. In a solution (0.1 M K2HP04, 50 mM KCl, 50 mM HEPES, 1 mM EDTA, 5 mM DTT, pH 7.5) were added glutamine and fructose-6-phosphate to final concentrations of 6 mM and 10 mM, respectively. Then, in 100 μl of this reaction mixture was added 1 μl of TGC028-3 or TGC028-4 protein, and the reaction mixture was incubated at room temperature for 5 hours. Thereafter, the reaction mixture was subjected to centrifugal filtration using a Ultrafree C3GC (cut-off molecular weight: 10,000; Millipore) and the filtrate obtained was mixed with an equal volume of a solution consisted of methanol, water, and triethylamine at the ratio of 2:2:1. After the mixture was dried in vacuo, the residue was dissolved in 20 μl of a mixed solution of methanol, water, and triethylamine-phenyl isothiocyanate (PITC) at the ratio of 7:1:1:1 and the reaction was carried out at room temperature for 20 minutes. […] Elution was carried out using a mobile phase comprising 232 mM sodium acetate, 0.1% triethylamine and 5% acetonitrile (pH 6.0) at a flow rate of 1 ml/minute and PITC-bound glucosamine-6-phosphate was detected at UV 254 nm.

B1: TGC028-3: human-derived protein having the amino acid sequence of SEQ ID NO:2 (615 residues), novel GFAT protein expressed in E. coli (protein)
chain: MCGIFAYMNYRVPRTRKEIFETLIKGLQRLEYRGYDSAGVAIDGNNHEVKERHIQLVKKRGKVKALDEELYKQDSMDLKVEFETHFGIAHTRWATHGVPSAVNSHPQRSDKGNEFVVIHNGIITNYKDLRKFLESKGYEFESETDTETIAKLIKYVFDNRETEDITFSTLVERVIQQLEGAFALVFKSVHYPGEAVATRRGSPLLIGVRSKYKLSTEQIPILYRTCTLENVKNICKTRMKRLDSSACLHAVGDKAVEFFFASDASAIIEHTNRVIFLEDDDIAAVADGKLSIHRVKRSASDDPSRAIQTLQMELQQIMKGNFSAFMQKEIFEQPESVFNTMRGRVNFETNTVLLGGLKDHLKEIRRCRRLIVIGCGTSYHAAVATRQVLEELTELPVMVELASDFLDRNTPVFRDDVCFFISQSGETADTLLALRYCKDRGALTVGVTNTVGSSISRETDCGVHINAGPEIGVASTKAYTSQFISLVMFGLMMSEDRISLQNRRQEIIRGLRSLPELIKEVLSLEEKIHDLALELYTQRSLLVMGRGYNYATCLEGALKIKEITYMHSEGILAGELKHGPLALIDKQMPVIMVIMKDPCFAKCQNALQQVTARQV
As for B1, the “GFAT activity: formation of glucosamine-6-phosphate (peak of PITC-bound glucosamine-6-phosphate by HPLC, UV 254 nm)” value is recorded as “a peak was confirmed at the position corresponding to PITC-bound glucosamine-6-phosphate”.

B2: TGC028-4: human-derived protein having the amino acid sequence of SEQ ID NO:3 (682 residues), constructed from TGC028-3 and a GFAT-like DNA fragment (protein)
chain: MCGIFAYMNYRVPRTRKEIFETLIKGLQRLEYRGYDSAGVAIDGNNHEVKERHIQLVKKRGKVKALDEELYKQDSMDLKVEFETHFGIAHTRWATHGVPSAVNSHPQRSDKGNEFVVIHNGIITNYKDLRKFLESKGYEFESETDTETIAKLIKYVFDNRETEDITFSTLVERVIQQLEGAFALVFKSVHYPGEAVATRRGSPLLIGVRSKYKLSTEQIPILYRTCTLENVKNICKTRMKRLDSSACLHAVGDKAVEFFFASDASAIIEHTNRVIFLEDDDIAAVADGKLSIHRVKRSASDDPSRAIQTLQMELQQIMKGNFSAFMQKEIFEQPESVFNTMRGRVNFETNTVLLGGLKDHLKEIRRCRRLIVIGCGTSYHAAVATRQVLEELTELPVMVELASDFLDRNTPVFRDDVCFFISQSGETADTLLALRYCKDRGALTVGVTNTVGSSISRETDCGVHINAGPEIGVASTKAYTSQFISLVMFGLMMSEDRISLQNRRQEIIRGLRSLPELIKEVLSLEEKIHDLALELYTQRSLLVMGRGYNYATCLEGALKIKEITYMHSEGILAGELKHGPLALIDKQMPVIMVIMKDPCFAKCQNALQQVTARQGRPIILCSKDDTESSKFAYKTIELPHTVDCLQGILSVIPLQLLSFHLAVLRGYDVDFPRNLAKSVTVE
Turning to B2, the “GFAT activity: formation of glucosamine-6-phosphate (peak of PITC-bound glucosamine-6-phosphate by HPLC, UV 254 nm)” value is listed as “a peak was confirmed at the position corresponding to PITC-bound glucosamine-6-phosphate”.

The values are drawn from patent US6632627B2, “Glutamine: fructose-6-phosphate amidotransferase, its production and use” (Takeda Chemical Industries, Ltd., priority 1997, dated 2003).
